The experiment deals with muscarinic acetylcholine receptor type 1 (M1R) (human) (UniProt P11229).
Sequence of UniProt P11229 (P11229 whole entry): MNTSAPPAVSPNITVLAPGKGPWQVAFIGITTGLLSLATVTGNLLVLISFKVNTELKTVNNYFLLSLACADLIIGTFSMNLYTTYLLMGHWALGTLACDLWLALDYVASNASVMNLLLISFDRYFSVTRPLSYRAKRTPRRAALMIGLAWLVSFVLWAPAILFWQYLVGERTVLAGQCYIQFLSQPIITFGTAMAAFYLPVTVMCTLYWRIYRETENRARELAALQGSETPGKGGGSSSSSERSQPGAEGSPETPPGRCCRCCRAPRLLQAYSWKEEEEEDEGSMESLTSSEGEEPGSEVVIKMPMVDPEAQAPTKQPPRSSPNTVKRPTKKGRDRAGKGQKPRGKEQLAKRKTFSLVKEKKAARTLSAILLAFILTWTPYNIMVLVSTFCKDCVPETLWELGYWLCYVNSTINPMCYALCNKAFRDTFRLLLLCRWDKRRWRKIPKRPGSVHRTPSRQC

“Gi3_Δ5 (Gαi3 with the last five residues truncated, with added Gβγ) (from UniProt P08754 1-349; P62873 1-340; P59768 1-71) (complex)” came in with an M1R-induced [3H]GDP release from Gi3 Δ5 (Fig. 3c) (% GDP release) of 20.

The values are drawn from publication PMC7308389.
